Assay [1] deals with T1, human MAdCAM (human, UniProt Q13477 19-317, limits assumed).
T1 construct: also called huMAdCAM; human MAdCAM-1
T1 sequence (looked up): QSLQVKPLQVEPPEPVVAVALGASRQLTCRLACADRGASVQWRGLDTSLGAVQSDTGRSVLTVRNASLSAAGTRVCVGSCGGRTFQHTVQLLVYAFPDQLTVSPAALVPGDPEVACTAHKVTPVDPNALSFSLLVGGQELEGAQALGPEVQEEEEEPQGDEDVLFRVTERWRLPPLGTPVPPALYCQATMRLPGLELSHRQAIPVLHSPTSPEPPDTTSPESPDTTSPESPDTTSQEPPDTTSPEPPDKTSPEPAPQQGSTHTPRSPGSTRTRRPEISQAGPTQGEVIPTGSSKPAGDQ
The assay is described as follows: BLI (Octet), binder on AHC tips. The essentials: (§1)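 Binding was measured on an Octet96 RED instrument using anti-human IgG Fc biosensors, which were first equilibrated in assay buffer for 20 minutes. The tips were then loaded for 240 s with test article at 10 μg/mL in assay buffer, exposed to MAdCAM-1 for 120 s of association, and returned to assay buffer for 120 s of dissociation, with MAdCAM-1 run as a seven-point serial dilution from 200 nM to 3.13 nM. Kinetic rates and the dissociation constant were derived by a global one-to-one fit in the Octet data analysis software.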

The next assay addresses T2, mouse MAdCAM (mouse, UniProt Q61826 22-365, limits assumed).
T2 construct: also called mouse MAdCAM-1; muMAdCAM
T2 sequence (looked up): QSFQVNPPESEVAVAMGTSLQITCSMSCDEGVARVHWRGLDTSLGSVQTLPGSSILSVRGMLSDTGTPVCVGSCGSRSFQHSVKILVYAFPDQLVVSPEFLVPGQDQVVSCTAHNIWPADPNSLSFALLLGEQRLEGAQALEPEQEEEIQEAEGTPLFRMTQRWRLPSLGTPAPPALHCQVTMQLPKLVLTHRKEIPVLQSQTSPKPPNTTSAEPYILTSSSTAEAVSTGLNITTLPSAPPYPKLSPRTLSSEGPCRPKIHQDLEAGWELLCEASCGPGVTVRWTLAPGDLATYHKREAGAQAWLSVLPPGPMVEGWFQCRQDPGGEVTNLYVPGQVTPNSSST
Nature of the assay: BLI (Octet), binder on AHC tips. The essentials: as §1
A general note: Biolayer interferometry detects binding as a change in optical thickness at a sensor tip.

The target of assay [2] is T1, human MAdCAM. Nature of the assay: BLI (Octet), binder on anti-human Fc tips.

Changes are numbered by the printed parent chain.

This note sets out measurements from US20240010722A1 (published 2024).

B1: PMAB7 (bispecific antibody, human IgG1, kappa)
heavy: EVQLLESGGGLVQPGGSLRLSCAASGFTFSNSDMSWVRQAPGKGLEWVSGITISGGSTYYADSVKGRFTISRDNSKNTLYLQMNSLRAEDTAVYYCARGRGGSGWLDYWGQGTLVTVSSASTKGPSVFPLAPSSKSTSGGTAALGCLVKDYFPEPVTVSWNSGALTSGVHTFPAVLQSSGLYSLSSVVTVPSSSLGTQTYICNVNHKPSNTKVDKKVEPKSCDKTHTCPPCPAPEAAGAPSVFLFPPKPKDTLMISRTPEVTCVVVDVSHEDPEVKFNWYVDGVEVHNAKTKPREEQYNSTYRVVSVLTVLHQDWLNGKEYKCKVSNKALPAPIEKTISKAKGQPREPQVYTLPPSREEMTKNQVSLTCLVKGFYPSDIAVEWESNGQPENNYKTTPPVLDSDGSFFLYSKLTVDKSRWQQGNVFSCSVMHEALHNHYTQKSLSLSPGGGGGSGGGGSGGGGSEVQLLESGGGLVQPGGSLRLSCAASGFTFSSYWMHWVRQAPGKGLEWISAISGSGGSTYYADSVKGRFTISRDNSKNTLYLQMNSLRAEDTAVYYCARDRPYYYYMDVWGKGTTVTVSSGGGGSGGGGSGGGGSGGGGSDIQMTQSPSSLSASVGDRVTITCRASQSISSSLAWYQQKPGKAPKLLIYAASSLQSGVPSRFSGSGSGTDFTLTISSLQPEDFATYYCQQYKSYPVTFGQGTKVEIK
light: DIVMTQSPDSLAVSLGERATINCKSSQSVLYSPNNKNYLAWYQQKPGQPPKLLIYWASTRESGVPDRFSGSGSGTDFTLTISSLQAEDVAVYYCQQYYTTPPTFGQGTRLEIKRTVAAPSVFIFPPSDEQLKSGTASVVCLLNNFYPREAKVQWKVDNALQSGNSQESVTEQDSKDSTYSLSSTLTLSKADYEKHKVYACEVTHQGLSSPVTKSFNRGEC
On to B1, for which, in the assay with human MAdCAM [1], the Kd (commonly the constant that tells how readily two partners part at equilibrium) was 236 nM; the koff – broadly, the rate constant with which the complex falls apart – worked out at 0.136 s⁻¹; the on-rate constant (kon) (usually a measure of how fast the partners come together) was determined as 576000 M⁻¹ s⁻¹.

B2: PMAB47 (bispecific antibody, human IgG1, kappa)
heavy: B1 heavy with S494D, Y495F, A513Y, S517D, G518S, S520Y, Y522N, Y566N, I631V, S633R
light: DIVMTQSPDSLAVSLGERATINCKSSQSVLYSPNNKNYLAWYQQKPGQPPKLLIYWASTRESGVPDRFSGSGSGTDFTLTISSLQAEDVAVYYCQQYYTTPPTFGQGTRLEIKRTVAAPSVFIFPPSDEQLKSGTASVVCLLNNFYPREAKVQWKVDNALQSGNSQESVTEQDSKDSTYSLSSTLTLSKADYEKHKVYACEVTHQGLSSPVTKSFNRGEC
In the assay with human MAdCAM [1], B2 yielded a Kd of 219 nM, an off-rate (koff) of 0.072 s⁻¹ and a kon of 329000 M⁻¹ s⁻¹.

B3: PMAB8 (bispecific antibody, human IgG1, kappa)
heavy: B1 heavy with Y566G, S633R
light: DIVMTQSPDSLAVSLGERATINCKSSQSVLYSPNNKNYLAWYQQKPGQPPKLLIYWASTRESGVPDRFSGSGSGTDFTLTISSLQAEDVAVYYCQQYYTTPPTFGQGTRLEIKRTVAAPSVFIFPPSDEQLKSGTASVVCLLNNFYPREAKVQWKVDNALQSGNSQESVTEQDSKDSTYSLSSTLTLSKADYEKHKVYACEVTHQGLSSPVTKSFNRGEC
For B3, in the assay with human MAdCAM [1], the dissociation constant (Kd) was 71.4 nM, the off-rate constant (koff) was 0.0469 s⁻¹ and the kon came out at 656000 M⁻¹ s⁻¹.

B4: PMAB43 (bispecific antibody, human IgG1, kappa)
heavy: B1 heavy with S494D, Y495F, A513Y, S517D, G518S, S520Y, Y522N, I631V, S633R, V698R
light: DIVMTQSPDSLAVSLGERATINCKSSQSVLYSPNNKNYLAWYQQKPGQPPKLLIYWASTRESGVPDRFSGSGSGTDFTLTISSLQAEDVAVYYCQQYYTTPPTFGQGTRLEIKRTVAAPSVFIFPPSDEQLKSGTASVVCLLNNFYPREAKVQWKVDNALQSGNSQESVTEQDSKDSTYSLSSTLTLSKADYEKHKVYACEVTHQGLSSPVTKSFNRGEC
In the case of B4, the binding result with human MAdCAM [1] is recorded as “no binding (tested: 200 nM (top of the dilution series))”.

B5: PMAB38 (bispecific antibody, human IgG1, kappa)
heavy: B1 heavy with S494D, Y495F, A513Y, S517D, G518S, S520Y, Y522N, I631V, S633R, S634Y
light: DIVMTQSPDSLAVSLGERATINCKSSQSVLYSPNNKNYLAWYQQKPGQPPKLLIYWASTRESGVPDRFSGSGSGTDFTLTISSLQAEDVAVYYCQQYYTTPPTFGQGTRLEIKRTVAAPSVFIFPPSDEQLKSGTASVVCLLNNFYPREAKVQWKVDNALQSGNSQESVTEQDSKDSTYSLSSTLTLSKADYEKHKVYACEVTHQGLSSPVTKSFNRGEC
B5: the binding result with human MAdCAM [1] is reported as “no binding (tested: 200 nM (top of the dilution series))”.

B6: PMAB10 (bispecific antibody, human IgG1, kappa)
heavy: B1 heavy with I511V, Y566G
light: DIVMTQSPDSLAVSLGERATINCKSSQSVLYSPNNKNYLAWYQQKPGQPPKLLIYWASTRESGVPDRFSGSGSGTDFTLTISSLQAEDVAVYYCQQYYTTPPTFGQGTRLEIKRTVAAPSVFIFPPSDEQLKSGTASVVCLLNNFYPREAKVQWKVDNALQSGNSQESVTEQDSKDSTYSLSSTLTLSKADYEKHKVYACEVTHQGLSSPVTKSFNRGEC
On to B6, for which, in the assay with human MAdCAM [1], the Kd was determined as 146 nM, the dissociation rate constant (koff) was 0.0967 s⁻¹ and the kon was found to be 662000 M⁻¹ s⁻¹.

B7: PMAB12 (bispecific antibody, human IgG1, kappa)
heavy: B1 heavy with I511V, Y566G, S633R
light: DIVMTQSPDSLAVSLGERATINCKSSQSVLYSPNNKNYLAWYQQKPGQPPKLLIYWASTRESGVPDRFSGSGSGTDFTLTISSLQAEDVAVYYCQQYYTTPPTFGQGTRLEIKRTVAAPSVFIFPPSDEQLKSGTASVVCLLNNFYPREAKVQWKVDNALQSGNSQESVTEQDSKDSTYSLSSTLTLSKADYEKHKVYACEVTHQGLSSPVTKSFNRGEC
In the assay with human MAdCAM [1], B7 had a Kd of 63.3 nM, an off-rate constant (koff) of 0.0464 s⁻¹ and a kon of 733000 M⁻¹ s⁻¹.

B8: PMAB46 (bispecific antibody, human IgG1, kappa)
heavy: B1 heavy with S494D, Y495F, A513Y, S517D, G518S, S520Y, Y522N, Y566G, I631V, S633R
light: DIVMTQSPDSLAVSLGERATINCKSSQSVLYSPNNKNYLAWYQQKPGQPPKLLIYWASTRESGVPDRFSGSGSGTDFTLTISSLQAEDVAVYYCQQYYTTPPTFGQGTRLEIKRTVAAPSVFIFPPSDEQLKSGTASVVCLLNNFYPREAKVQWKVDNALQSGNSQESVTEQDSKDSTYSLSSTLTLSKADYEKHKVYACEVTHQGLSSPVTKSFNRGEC
As for B8, in the assay with human MAdCAM [1], binding was characterised by a dissociation constant (Kd) of 37900 nM, the koff stood at 0.309 s⁻¹ and the on-rate (kon) came to 8160 M⁻¹ s⁻¹.

B9: PMAB13 (bispecific antibody, human IgG1, kappa)
heavy: B1 heavy with I511V, S633R
light: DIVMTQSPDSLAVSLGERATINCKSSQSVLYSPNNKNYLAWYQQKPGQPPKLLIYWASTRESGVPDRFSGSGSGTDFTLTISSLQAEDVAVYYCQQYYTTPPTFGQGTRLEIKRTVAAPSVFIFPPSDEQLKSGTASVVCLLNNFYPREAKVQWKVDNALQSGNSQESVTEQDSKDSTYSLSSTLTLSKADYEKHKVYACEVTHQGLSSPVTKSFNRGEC
For B9, in the assay with human MAdCAM [1], the Kd amounted to 132 nM, the koff amounted to 0.0717 s⁻¹ and the association rate constant (kon) was 542000 M⁻¹ s⁻¹.

B10: PMAB9 (bispecific antibody, human IgG1, kappa)
heavy: B1 heavy with S633R
light: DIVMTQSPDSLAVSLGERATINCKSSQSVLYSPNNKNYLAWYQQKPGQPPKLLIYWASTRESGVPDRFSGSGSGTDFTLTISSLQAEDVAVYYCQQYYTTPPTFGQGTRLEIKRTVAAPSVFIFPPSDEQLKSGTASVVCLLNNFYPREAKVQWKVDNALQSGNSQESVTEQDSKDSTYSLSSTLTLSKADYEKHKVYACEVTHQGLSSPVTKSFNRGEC
Take B10: in the assay with human MAdCAM [1], the Kd was found to be 159 nM, the off-rate (koff) came to 0.0725 s⁻¹ and the on-rate constant (kon) worked out at 455000 M⁻¹ s⁻¹.

B11: PMAB41 (bispecific antibody, human IgG1, kappa)
heavy: B1 heavy with S494D, Y495F, A513Y, S517D, G518S, S520Y, Y522N, I631V, S633R, K694Y
light: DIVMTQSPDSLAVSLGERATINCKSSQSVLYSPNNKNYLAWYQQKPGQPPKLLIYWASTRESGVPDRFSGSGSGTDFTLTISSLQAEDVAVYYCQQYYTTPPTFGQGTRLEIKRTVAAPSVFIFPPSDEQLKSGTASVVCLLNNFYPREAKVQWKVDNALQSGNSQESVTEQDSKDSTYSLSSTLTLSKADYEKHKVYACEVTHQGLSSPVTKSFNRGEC
For B11, in the assay with mouse MAdCAM, the dissociation constant Kd is 119 nM, the off-rate constant (koff) stood at 0.0246 s⁻¹, the kon amounted to 208000 M⁻¹ s⁻¹ and the response turned out to be 0.189.

B12: PMAB49 (bispecific antibody, human IgG1, kappa)
heavy: B1 heavy with S494D, Y495F, A513Y, S517D, G518S, S520Y, Y522N, Y568D, I631V, S633R
light: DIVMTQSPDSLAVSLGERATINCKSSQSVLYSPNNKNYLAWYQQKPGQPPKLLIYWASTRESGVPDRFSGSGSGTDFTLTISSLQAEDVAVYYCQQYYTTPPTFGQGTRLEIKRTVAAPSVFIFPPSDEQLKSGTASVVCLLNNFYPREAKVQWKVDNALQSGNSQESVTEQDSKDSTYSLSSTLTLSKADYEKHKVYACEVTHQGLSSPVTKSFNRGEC
In the assay with human MAdCAM [1], B12 yielded a Kd of 142 nM, a koff of 0.0125 s⁻¹ and an association rate constant (kon) of 87900 M⁻¹ s⁻¹.

B13: PMAB11 (bispecific antibody, human IgG1, kappa)
heavy: B1 heavy with I511V
light: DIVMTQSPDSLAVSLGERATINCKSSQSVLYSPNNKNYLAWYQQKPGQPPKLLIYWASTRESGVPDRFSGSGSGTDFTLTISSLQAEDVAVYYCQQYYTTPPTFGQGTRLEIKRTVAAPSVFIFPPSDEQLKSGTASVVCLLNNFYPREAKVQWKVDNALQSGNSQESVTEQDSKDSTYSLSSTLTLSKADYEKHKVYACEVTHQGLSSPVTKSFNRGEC
In the assay with human MAdCAM [1], B13 displayed a Kd of 466 nM, a dissociation rate constant (koff) of 0.195 s⁻¹ and an on-rate constant (kon) of 419000 M⁻¹ s⁻¹.

B14: PMAB39 (bispecific antibody, human IgG1, kappa)
heavy: B1 heavy with S494D, Y495F, A513Y, S517D, G518S, S520Y, Y522N, I631V, S633R, A636N
light: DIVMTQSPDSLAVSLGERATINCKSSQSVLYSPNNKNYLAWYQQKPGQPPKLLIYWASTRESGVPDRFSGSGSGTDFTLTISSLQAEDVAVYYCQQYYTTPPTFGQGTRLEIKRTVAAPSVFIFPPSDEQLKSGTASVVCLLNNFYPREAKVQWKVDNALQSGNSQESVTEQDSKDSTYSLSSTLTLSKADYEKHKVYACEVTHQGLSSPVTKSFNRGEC
As for B14, in the assay with human MAdCAM [1], the binding result is reported as “no binding (tested: 200 nM (top of the dilution series))”.

B15: PMAB51 (bispecific antibody, human IgG1, kappa)
heavy: B1 heavy with S494D, Y495F, A513Y, S517D, G518S, S520Y, Y522N, Y568K, I631V, S633R
light: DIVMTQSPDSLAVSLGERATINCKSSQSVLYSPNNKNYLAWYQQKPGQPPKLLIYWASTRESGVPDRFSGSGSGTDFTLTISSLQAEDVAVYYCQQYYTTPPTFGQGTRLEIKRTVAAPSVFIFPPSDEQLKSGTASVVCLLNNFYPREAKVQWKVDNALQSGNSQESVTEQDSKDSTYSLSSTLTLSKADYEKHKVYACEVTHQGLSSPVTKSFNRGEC
Regarding B15, in the assay with human MAdCAM [1], the affinity, expressed as Kd, was 93.5 nM; the koff is 0.00952 s⁻¹; the kon was determined as 115000 M⁻¹ s⁻¹.

B16: PMAB21 (bispecific antibody, human IgG1, kappa)
heavy: B1 heavy with S494D, Y495F, W496A, A513Y, S517D, G518S, S520Y, Y522N, I631V, S633R
light: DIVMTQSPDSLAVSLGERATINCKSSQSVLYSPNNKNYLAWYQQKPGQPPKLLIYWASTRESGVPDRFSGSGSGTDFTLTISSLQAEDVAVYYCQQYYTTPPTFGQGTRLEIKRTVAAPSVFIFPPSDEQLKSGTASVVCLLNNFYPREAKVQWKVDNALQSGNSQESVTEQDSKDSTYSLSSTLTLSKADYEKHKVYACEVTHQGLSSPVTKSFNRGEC
As for B16, in the assay with human MAdCAM [1], the binding result was “no binding (tested: 300 nM (top of the dilution series))”.

B17: MIAB141 (antibody, V domains shown)
VH: EVQLLESGGGLVQPGGSLRLSCAASGFTFSDFWMHWVRQAPGKGLEWISYISGDSGYTNYADSVKGRFTISRDNSKNTLYLQMNSLRAEDTAVYYCARDRPYYYYMDVWGKGTTVTVSS
VL: DIQMTQSPSSLSASVGDRVTITCRASQSISSYLNWYQQKPGKAPKLLIYAASSLQSGVPSRFSGSGSGTDFTLTISSLQPEDFATYYCQQYKSYPVTFGQGTKVEIK
notes: tested with human Fc
As to B17, the binding result in the assay with human MAdCAM [2] was “no binding (tested: 150 nM)”.

B18: MIAB182 (antibody, V domains shown)
VH: B17 VH with D31S, F32Y, I48V, Y50A, D54S, S55G, Y57S, N59Y
VL: B17 VL with S31R, Y32S, N34A
notes: tested with human Fc; also called MIAB182-001
Turning to B18, in the assay with human MAdCAM [2], the affinity, expressed as Kd, was 119 nM; the “fold reduction of affinity against PRNT1” value stood at 10 fold; the off-rate (koff) turned out to be 0.0267 s⁻¹; the on-rate constant (kon) was found to be 226000 M⁻¹ s⁻¹.

B19: MIAB183 (antibody, V domains shown)
VH: B17 VH with D31S, F32Y, I48V, Y50A, D54S, S55G, Y57S, N59Y
VL: B17 VL with I29V, Y32S, N34A
notes: tested with human Fc; also called MIAB183-001
B19: in the assay with human MAdCAM [2], the equilibrium dissociation constant (Kd) was 362 nM and the “fold reduction of affinity against PRNT1” value amounted to 20 fold.

B20: MIAB177 (antibody, V domains shown)
VH: B17 VH with I48V, Y50A, D54S, S55G, Y57S, N59Y
VL: B17 VL with I29V, S31R, Y32S, N34A
notes: tested with human Fc; also called MIAB177-001
As to B20, in the assay with human MAdCAM [2], the dissociation constant Kd was 218 nM, the off-rate constant (koff) worked out at 0.0851 s⁻¹ and the kon turned out to be 391000 M⁻¹ s⁻¹.

B21: MIAB184 (antibody, V domains shown)
VH: B17 VH with D31S, F32Y, I48V, Y50A, D54S, S55G, Y57S, N59Y
VL: B17 VL with Y32S, N34A
notes: tested with human Fc; also called MIAB184-001
Regarding B21, in the assay with human MAdCAM [2], the Kd was determined as 563 nM, the “fold reduction of affinity against PRNT1” value came out at 40 fold, the off-rate (koff) turned out to be 0.0818 s⁻¹ and the kon turned out to be 145000 M⁻¹ s⁻¹.

B22: MIAB175 (antibody, V domains shown)
VH: B17 VH with D31S, F32Y
VL: B17 VL with I29V, S31R, Y32S, N34A
notes: tested with human Fc; also called MIAB175-001
In the assay with human MAdCAM [2], B22 returned a Kd of 22.6 nM, a dissociation rate constant (koff) of 0.0106 s⁻¹ and a kon of 471000 M⁻¹ s⁻¹.

B23: MIAB178 (antibody, V domains shown)
VH: B17 VH with D31S, F32Y, Y50A, D54S, Y57S, N59Y
VL: B17 VL with I29V, S31R, Y32S, N34A
notes: tested with human Fc; also called MIAB178-001
In the assay with human MAdCAM [2], B23 had a Kd of 519 nM, a koff of 0.22 s⁻¹ and an association rate constant (kon) of 372000 M⁻¹ s⁻¹.

B24: MIAB174 (antibody, V domains shown)
VH: B17 VH with F32Y
VL: B17 VL with I29V, S31R, Y32S, N34A
notes: tested with human Fc; also called MIAB174-001
In the assay with human MAdCAM [2], B24 registered a Kd of 21.8 nM, a koff of 0.00969 s⁻¹ and a kon of 445000 M⁻¹ s⁻¹.
